Measurements taken from the RNAGym collection of RNA variant scans (doi:10.1073/pnas.2313332121).

B1: TPR t1 (parent)
chain: GACCAAUCUGCCCUCAGAGCUCGAGAACAUCUUCGGAUGCAGAGGAGGCAGGCUUCGGUGGCGCGAUAGCGCCAACGUCCUCAACCUCCAAUGCAUCCCACCACAUGAUGAUGCCUGAAGAGCCUUGGUUUUUUG

Variants of: B1
Test: polymerase ribozyme fitness, log enrichment relative to wild type (log ratio); higher = more active; in vitro selection for triplet polymerase activity
Summary of the method: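 For each subunit of a heterodimeric triplet polymerase ribozyme, a mutant library was built by PCR and transcribed, then taken through a single in vitro selection round in triplicate. Selection involved annealing to a biotinylated primer, the partner subunit and triplets, incubation frozen at −7 °C, gel excision of extended constructs, capture on streptavidin beads and RT-PCR. Genotypes were retained after Illumina sequencing of inputs and outputs only with ≥10 input reads and ≥1 read in each output. Fitness is defined as the logarithm of a genotype's enrichment relative to wild-type enrichment, using inverse-variance-weighted averages across replicates, with the logarithm taken to base 2.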

Point of comparison: C56A C70G C124A G127A, “polymerase ribozyme fitness (log ratio)” value -2.78. Against it:
- A16U G17A G117A — higher, -2.04
- A6U C40U C123A — higher, 0.808
- C11U C99U — lower, -3.13
- C11G A74U C76A U78A C80U G93U G135C — lower, -3.08
- U55C C56A A90G C94G G110C U116A A121G — lower, -6.03
- C80U A121U — higher, 1.34
- A5U A29G A46G C82G G120A — higher, -1.34
- A27C A41C U106C — lower, -5.25
- G61A U112G — higher, 0.603
- A5C U38G U96C C104U — higher, -2.11
- A43C G60A — higher, -2.3
- U7G C88U A119G — higher, 1.51
- C12U A27G A66C C73A U78C C101A — lower, -4.25
- G10C C114U — higher, -2.38
- A46U G48U U112G G135C — lower, -3.81
- A24U G69U C88A C114A — lower, -6.87
- C31U A68G — lower, -6.34
- G69U C70U — higher, -0.561
- G35U G71U — lower, -5.03
- C49U G61A U96A — higher, -0.582
- C3U C11A C73G A75U C99G A103U A121G — lower, -7.22
- G10A G107A C123U C124A — lower, -4.28
- C34U U92A — lower, -6.09
- U30C G69A — lower, -4.88
- A41C C62U G110A — lower, -3.63
- C22G G71U — lower, -3.63
- G10U C20U U32A A84U C104A — lower, -3.8
- C13U A46U G110A A111C A119C — lower, -5.5
- G47C A50U U81C C114U — lower, -4.15
- C73U A91G C104U U112A G113U — higher, -0.254
- A18U A26C C62U G120C U126G — lower, -7.02
- C31A C73G — lower, -5.21
- U7C C12G — higher, 0.687
- G52U C76G C97U — higher, -2.35
- U9C C13G C28G G45U G61A — higher, -2.49
- C13G G17C — lower, -4.94
- C76A C82G C88U G110C — lower, -5.82
- G60A U78A G107C A111U — lower, -5.18
- G61U U133G — higher, -0.566
- G69U U78G C102U — higher, -0.192
- G10A C62A A91C C123U — higher, -0.505
- C8A C15A G52C C80A — lower, -4.36
- C11G C88G G93C — lower, -3.14
- A29G C97A — lower, -5.53
- A6G C11U A29G G52A C76A C85A U125G — lower, -5.55
- A2C C62U G110A — lower, -3.07
- U9G A41U U54A U78C — higher, -1.59
- G48A C85G U106C — higher, -1.25
- A41U G135U — higher, -2.4
- A6U C8G G44U C49A C72A G77U G120C U130G — higher, -1.84
- G71A C114U G127U — lower, -5.52
- G61U C94U — higher, 0.338
- G19U A105U U106A G113C — higher, -0.75
- A6U C11G U112A U126A — higher, 1.81
- A50U A84G — lower, -3.04
- A16U U59G G69A U96C — lower, -4.5
- C11G C115U — higher, -1.01
- U9A G19U A46U C56G U133G — lower, -4.95
- G63U G110U — lower, -3.12
- C76G A90C — higher, -0.998
- G60A A118U U126A — higher, -2.3
- A2G G47U A84C C88U A90U A91C U133G — within 0.2 log units, -2.71
- C53A G60C — higher, -2.24
- G58A G61A G120A — higher, 0.579
- U14G A43U C88G — lower, -3.5
- G57U U116A — lower, -3.39
- G10U G113U — within 0.2 log units, -2.76
- A27C C72A C79U G113U — lower, -6.86
- C64A U133A — lower, -6.16
- G61U G107A — lower, -5.22
- C3U C13G A90U — higher, -1.11
- C11U U116G G122A C124U — higher, 0.369
- A5U A41G U55A C70G — lower, -3.9
- C13G G120U — higher, -0.586
- C98A G120A — lower, -3.18
- A50G A83C C123U — higher, -0.187
- C11G U33G A95G C101U G120C — lower, -5.25
- C13G G63C C85G U112A G120C — higher, -1.45
- C40G A46C G48U C73G C124G — lower, -5.04
- G35U G61A C98G G107C C115A G120A — lower, -7.51
- U14C A50U U96C C115U A121U — lower, -5.13
- G48U U54G U129A — higher, -1.88
- U9G C31U C94G — lower, -6.42
